In the test the target is T1, tetanus toxoid (UniProt P04958 2-1315).
T1 construct: also called TTX
The test can be described thus: ELISA, wells coated with FAP or irrelevant Ag as for the chimeric scFv.

Two molecules from patent US20020099180A1 (published 2002) can be followed below.

T1 sequence (P04958 2-457 limits assumed, chain 1 of 2): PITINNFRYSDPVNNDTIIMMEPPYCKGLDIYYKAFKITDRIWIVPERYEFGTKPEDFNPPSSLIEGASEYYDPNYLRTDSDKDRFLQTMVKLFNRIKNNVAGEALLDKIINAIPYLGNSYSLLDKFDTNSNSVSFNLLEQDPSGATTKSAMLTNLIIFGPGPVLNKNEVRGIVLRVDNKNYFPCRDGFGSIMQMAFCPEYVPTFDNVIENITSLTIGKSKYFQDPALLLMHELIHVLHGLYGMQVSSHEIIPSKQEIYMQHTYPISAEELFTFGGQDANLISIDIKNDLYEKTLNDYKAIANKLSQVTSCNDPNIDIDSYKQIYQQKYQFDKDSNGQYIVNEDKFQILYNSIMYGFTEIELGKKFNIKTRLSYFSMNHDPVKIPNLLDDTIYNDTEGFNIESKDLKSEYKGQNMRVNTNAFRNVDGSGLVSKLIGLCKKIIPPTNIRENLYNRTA
T1 sequence (P04958 458-1315 limits assumed, chain 2 of 2): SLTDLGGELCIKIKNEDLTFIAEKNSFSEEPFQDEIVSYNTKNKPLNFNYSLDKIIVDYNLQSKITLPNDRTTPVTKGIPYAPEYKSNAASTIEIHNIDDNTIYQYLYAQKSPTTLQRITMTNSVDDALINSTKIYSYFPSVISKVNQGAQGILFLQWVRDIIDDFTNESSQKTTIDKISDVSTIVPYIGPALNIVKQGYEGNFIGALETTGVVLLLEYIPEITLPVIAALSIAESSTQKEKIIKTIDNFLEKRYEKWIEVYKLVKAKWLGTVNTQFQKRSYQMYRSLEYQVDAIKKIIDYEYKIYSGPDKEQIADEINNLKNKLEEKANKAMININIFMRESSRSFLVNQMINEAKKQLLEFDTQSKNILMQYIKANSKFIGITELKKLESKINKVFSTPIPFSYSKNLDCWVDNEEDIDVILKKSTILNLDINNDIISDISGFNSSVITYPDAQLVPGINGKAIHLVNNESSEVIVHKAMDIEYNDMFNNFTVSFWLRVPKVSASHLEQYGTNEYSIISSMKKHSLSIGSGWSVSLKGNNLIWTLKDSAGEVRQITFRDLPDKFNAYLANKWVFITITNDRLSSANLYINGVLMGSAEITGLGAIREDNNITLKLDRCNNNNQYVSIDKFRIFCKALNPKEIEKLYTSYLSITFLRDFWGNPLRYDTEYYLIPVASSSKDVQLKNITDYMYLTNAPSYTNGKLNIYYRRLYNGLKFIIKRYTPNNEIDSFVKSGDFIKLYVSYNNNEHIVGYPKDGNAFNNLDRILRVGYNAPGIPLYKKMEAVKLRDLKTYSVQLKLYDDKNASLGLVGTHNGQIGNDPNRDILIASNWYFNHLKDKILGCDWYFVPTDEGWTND

B1: scFv #34 (VH #34, IgG; VL III43; murine HCDR3 F19) (scFv)
scFv: QVQLQQSGAEVKKPGSSVKVSCKASGGTFSTHTINWVRQAPGQGLEWMGGIAPMFGTANYAQKFQGRVTITADKSTSTAYMEMSSLRSDDTAVYYCARRRIAYGYDEGHAMDYWGQGTLVTVSSASTKGPKLEEGEFSEARVDIQMTQSPSSLSASTGDRVTITCRASQDISSYLAWYQQAPGKAPHLLMSGATTLQTGVPSRFSGSGSGTDFTLTISSLQAEDVAVYYCQQYYRTPFTFGQGTKLEIKRTVAAPSVFAA
notes: Humanised monovalent scFv, detected through the c-myc tag with 9E10; also called clone #34; VH34YOL III43; not shown: c-myc and HIS6 tags (pOPE101), or pIII in the screening ELISA
In the case of B1, the binding result is “no binding”.

B2: scFv #18 (VH #18, IgG; VL III43; murine HCDR3 F19) (scFv)
scFv: QVQLVQSGAELKKPGSSMKVSCKASGDTFSTYSINWVRQAPGQGLEWMGVINPSGGSTSYAQKFQGRVTMTRDTSTSTVYMELSSLRSEDTAVYYCARRRIAYGYDEGHAMDYWGQGTLVTVSSASTKGPKLEEGEFSEARVDIQMTQSPSSLSASTGDRVTITCRASQDISSYLAWYQQAPGKAPHLLMSGATTLQTGVPSRFSGSGSGTDFTLTISSLQAEDVAVYYCQQYYRTPFTFGQGTKLEIKRTVAAPSVFAA
notes: Humanised monovalent scFv, detected through the c-myc tag with 9E10; also called clone #18; VH18 YOL III43; not shown: c-myc and HIS6 tags (pOPE101), or pIII in the screening ELISA
As to B2, the binding result is “no binding”.
